Assays:
[1] = target: HLA-B*2705 (B27) single antigen on Luminex beads (human); assay: Luminex single antigen, iBeads (#6), IVIg 1:4
[2] = target: HLA-B*2708 (B27) single antigen on Luminex beads (human); assay: Luminex single antigen, iBeads (#6), IVIg 1:4
[3] = target: HLA-B*3501 (B35) single antigen on Luminex beads (human); assay: Luminex single antigen, iBeads (#6), IVIg 1:4
[4] = target: HLA-B*3701 (B37) single antigen on Luminex beads (human); assay: Luminex single antigen, iBeads (#6), IVIg 1:4
[5] = target: HLA-B*3801 (B38) single antigen on Luminex beads (human); assay: Luminex single antigen, iBeads (#6), IVIg 1:4
[6] = target: HLA-B*3901 (B39) single antigen on Luminex beads (human); assay: Luminex single antigen, iBeads (#6), IVIg 1:4
[7] = target: HLA-B*4001 (B60) single antigen on Luminex beads (human); assay: Luminex single antigen, iBeads (#6), IVIg 1:4
[8] = target: HLA-B*4002 (B61) single antigen on Luminex beads (human); assay: Luminex single antigen, iBeads (#6), IVIg 1:4
[9] = target: HLA-B*4006 (B61) single antigen on Luminex beads (human); assay: Luminex single antigen, iBeads (#6), IVIg 1:4
[10] = target: HLA-B*4101 (B41) single antigen on Luminex beads (human); assay: Luminex single antigen, iBeads (#6), IVIg 1:4
[11] = target: HLA-B*4201 (B42) single antigen on Luminex beads (human); assay: Luminex single antigen, iBeads (#6), IVIg 1:4
[12] = target: HLA-B*4402 (B44) single antigen on Luminex beads (human); assay: Luminex single antigen, iBeads (#6), IVIg 1:4
[13] = target: HLA-B*4403 (B44) single antigen on Luminex beads (human); assay: Luminex single antigen, iBeads (#6), IVIg 1:4
[14] = target: HLA-B*4501 (B45) single antigen on Luminex beads (human); assay: Luminex single antigen, iBeads (#6), IVIg 1:4
[15] = target: HLA-B*4601 (B46) single antigen on Luminex beads (human); assay: Luminex single antigen, iBeads (#6), IVIg 1:4
[16] = target: HLA-B*4701 (B47) single antigen on Luminex beads (human); assay: Luminex single antigen, iBeads (#6), IVIg 1:4
[17] = target: Albumin on negative control beads (serum albumin, HSA/BSA) (human or bovine); assay: Luminex, iBead MFI against regular bead MFI, 1:4
[18] = target: HLA-B*2708 (B27) single antigen on Luminex beads (human); assay: Luminex single antigen, regular beads (#7), IVIg 1:4
[19] = target: HLA-B*3501 (B35) single antigen on Luminex beads (human); assay: as above
[20] = target: HLA-B*3701 (B37) single antigen on Luminex beads (human); assay: as above
[21] = target: HLA-B*3801 (B38) single antigen on Luminex beads (human); assay: as above
[22] = target: HLA-B*3901 (B39) single antigen on Luminex beads (human); assay: as above
[23] = target: HLA-B*4001 (B60) single antigen on Luminex beads (human); assay: as above
[24] = target: HLA-B*4006 (B61) single antigen on Luminex beads (human); assay: as above
[25] = target: HLA-B*4101 (B41) single antigen on Luminex beads (human); assay: as above
[26] = target: HLA-B*4201 (B42) single antigen on Luminex beads (human); assay: as above
[27] = target: HLA-B*4402 (B44) single antigen on Luminex beads (human); assay: as above
[28] = target: HLA-B*4403 (B44) single antigen on Luminex beads (human); assay: as above
[29] = target: HLA-B*4501 (B45) single antigen on Luminex beads (human); assay: as above
[30] = target: HLA-B*4601 (B46) single antigen on Luminex beads (human); assay: as above
[31] = target: HLA-B*4701 (B47) single antigen on Luminex beads (human); assay: as above
[32] = target: Albumin on negative control beads (serum albumin, HSA/BSA) (human or bovine); assay: Luminex single antigen beads, regular beads (#7), 1:4
[33] = target: HLA-A*0301 (A3) on single antigen beads (human) (UniProt P04439); assay: as above
[34] = target: HLA-B*2705 (B27) single antigen on Luminex beads (human); assay: Luminex single antigen, iBead vs regular bead, IVIg 1:4
[35] = target: HLA-B*2708 (B27) single antigen on Luminex beads (human); assay: as above
[36] = target: HLA-B*3501 (B35) single antigen on Luminex beads (human); assay: as above
[37] = target: HLA-B*3701 (B37) single antigen on Luminex beads (human); assay: as above
[38] = target: HLA-B*3801 (B38) single antigen on Luminex beads (human); assay: as above
[39] = target: HLA-B*3901 (B39) single antigen on Luminex beads (human); assay: as above
[40] = target: HLA-B*4001 (B60) single antigen on Luminex beads (human); assay: as above
[41] = target: HLA-B*4002 (B61) single antigen on Luminex beads (human); assay: as above
[42] = target: HLA-B*4006 (B61) single antigen on Luminex beads (human); assay: as above
[43] = target: HLA-B*4101 (B41) single antigen on Luminex beads (human); assay: as above
[44] = target: HLA-B*4402 (B44) single antigen on Luminex beads (human); assay: as above
[45] = target: HLA-B*4403 (B44) single antigen on Luminex beads (human); assay: as above
[46] = target: HLA-B*4601 (B46) single antigen on Luminex beads (human); assay: as above
[47] = target: HLA-B*4701 (B47) single antigen on Luminex beads (human); assay: as above

MFI [1]: 377 MFI
MFI [2]: 302 MFI
MFI [3]: 352 MFI
MFI [4]: 740 MFI
MFI [5]: 248 MFI
MFI [6]: 0 MFI
MFI [7]: 409 MFI
MFI [8]: 242 MFI
MFI [9]: 359 MFI
MFI [10]: 182 MFI
MFI [11]: 86 MFI
MFI [12]: 461 MFI
MFI [13]: 413 MFI
MFI [14]: 612 MFI
MFI [15]: 473 MFI
MFI [16]: 655 MFI
Difference % (iBead against regular bead) [17]: -44%
MFI [18]: 13 MFI
MFI [19]: 243 MFI
MFI [20]: 1100 MFI
MFI [21]: 254 MFI
MFI [22]: 0 MFI
MFI [23]: 237 MFI
MFI [24]: 765 MFI
MFI [25]: 32 MFI
MFI [26]: 0 MFI
MFI [27]: 683 MFI
MFI [28]: 284 MFI
MFI [29]: 272 MFI
MFI [30]: 537 MFI
MFI [31]: 355 MFI
MFI [32]: 1200 MFI
MFI [33]: 2 MFI
Difference % (iBead against regular bead MFI) [34]: 167%
Difference % (iBead against regular bead MFI) [35]: 2220%
Difference % (iBead against regular bead MFI) [36]: 45%
Difference % (iBead against regular bead MFI) [37]: -33%
Difference % (iBead against regular bead MFI) [38]: -2%
Difference % (iBead against regular bead MFI) [39]: 0%
Difference % (iBead against regular bead MFI) [40]: 73%
Difference % (iBead against regular bead MFI) [41]: 81%
Difference % (iBead against regular bead MFI) [42]: -53%
Difference % (iBead against regular bead MFI) [43]: 469%
Difference % (iBead against regular bead MFI) [44]: -33%
Difference % (iBead against regular bead MFI) [45]: 45%
Difference % (iBead against regular bead MFI) [46]: -12%
Difference % (iBead against regular bead MFI) [47]: 85%
Substance: Sandoglobulin (IVIg, Novartis, Basel, Switzerland) (antibody)

Reference: patent US10800847
